This series deals with T1, LeuB DBD (LeuBM50-125YS, SPR) (Aspergillus fumigatus, UniProt Q4WI12 224-299).
T1 sequence: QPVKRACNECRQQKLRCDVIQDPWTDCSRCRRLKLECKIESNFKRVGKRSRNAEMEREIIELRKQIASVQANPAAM
Description: SPR; 10 uM ZnCl2; 30 ug/ml poly(dAdT); SPR: 10 mM HEPES pH 7.4, 150 mM NaCl, 0.005% P20, 5 mM beta-mercaptoethanol, 10 uM ZnCl2, 25 C, LeuB DBD 6.25-400 nM with 30 ug/ml poly(dAdT); EMSA: as previously described (not given), 1 ug salmon sperm DNA as nonspecific or 100-fold cold probe as competitor. The conditions noted are these: protein: recombinant; tags: none stated; chain copies: 2; label: biotin; 16 bp duplex. A general note: SPR reads the build-up and loss of mass on a sensor chip optically.

B1: leuA 16 bp SPR duplex (dsDNA)
DNA 1: GGACCGATGTCGGATC
DNA 2: GATCCGACATCGGTCC
Consider B1, for which the Kd is 95.2 nM.

B2: hapX 16 bp SPR duplex (dsDNA)
DNA 1: CCGCCGAAATCGGGAA
DNA 2: TTCCCGATTTCGGCGG
B2: the Kd worked out at 160 nM.

A word on the Kd: it is the concentration at which binding is half-saturated.

(Values after article PMC6221358, “The Zn2Cys6-type transcription factor LeuB cross-links regulation of leucine biosynthesis and iron acquisition in Aspergillus fumigatus”.)
